{"source": "paper PMC8201801", "about": "(Proceedings of the National Academy of Sciences of the …, 2021)", "binders": {"B1": {"name": "Fab of MAb 14 (Fab 14) (Fab, V domains shown)", "VH": "AVHLQGTELVKPGASAGVKLSCKASGYTFTNYDMNWVRQRPEQGLEWIGWIFPGDGSTRYNEKFKGKATLTTDKSSSTAYQLNRLTSEDSAVYFCARRGSHGSYSFAYWGQGTLVTVSG", "VL": "DIVMTQSHKFMSTSVGDRVSITCKASQDVNTALAWYQQIPGQSPKLLIYSASNRYTGVPDRFTASGSGTDFTFTISSVQAEDLALYYCQQHYTTPWTFGGGTKLEIK"}}, "target": "T1, Canine parvovirus (CPV) capsid (Canine parvovirus type 2 (CPV-2), …)", "T1 chain": "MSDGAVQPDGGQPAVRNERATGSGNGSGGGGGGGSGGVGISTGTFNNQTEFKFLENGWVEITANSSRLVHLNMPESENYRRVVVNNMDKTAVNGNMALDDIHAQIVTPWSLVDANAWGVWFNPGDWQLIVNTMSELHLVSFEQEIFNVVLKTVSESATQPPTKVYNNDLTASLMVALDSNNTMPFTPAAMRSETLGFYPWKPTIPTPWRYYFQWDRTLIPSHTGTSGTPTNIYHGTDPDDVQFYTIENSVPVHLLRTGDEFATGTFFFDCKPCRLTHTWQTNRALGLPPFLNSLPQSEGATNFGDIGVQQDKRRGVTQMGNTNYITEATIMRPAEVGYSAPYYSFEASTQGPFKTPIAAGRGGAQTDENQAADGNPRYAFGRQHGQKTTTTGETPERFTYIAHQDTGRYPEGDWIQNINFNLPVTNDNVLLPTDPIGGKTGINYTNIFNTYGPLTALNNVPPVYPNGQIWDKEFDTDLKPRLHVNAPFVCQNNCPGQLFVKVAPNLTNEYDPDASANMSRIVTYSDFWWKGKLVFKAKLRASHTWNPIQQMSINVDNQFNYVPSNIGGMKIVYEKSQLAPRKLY", "experiment": "cryo-EM structure", "data": [{"binder": "B1", "values": [{"measurement": "stoichiometry N", "value": "~60", "unit": "Fab per capsid"}]}]}
